From article PMC5279944 come the findings set out here.

Assay [1] concerns the target plasma fibronectin purified from Fn1^syn/syn mice (pFN^syn) (mouse).
Assay [2] shares this target. The source holds these as a separate data set.
Assay [3] shares this target. This is another data set of the same source.
The target is the same in assay [4]. As to the kind of experiment: cross-linking; serum-starved Fn1-KO fibroblasts seeded (15, 30 and 60 min) on pFN-coated glass coverslips, spun or not spun; 1 mM DTSSP 15 min at 4°C; cross-linked fraction released with 25 mM DTT, α5 integrin western blot; cross-linked over total integrin. (In western blotting, separated proteins are transferred to a membrane and probed.)

“α5β1 integrin, endogenous on mouse cells (Fn1-KO fibroblasts) (from UniProt P11688 45-1053; P09055 21-798) (receptor)”: in assay [1], the pY397-FAK level in Fn1-KO cells plated on pFN^syn compared to pFN^wt was determined as 54 % decrease. The same substance gave an adhesion strength (τ50, spinning disk) of Fn1-KO cells on pFN^syn compared to pFN^wt in assay [2] of 16 % decrease. In assay [3], the mean spreading area of Itgb3^-/- platelets seeded for 60 min on pFN^syn amounted to 3.8 μm^2. Besides, the α5 integrin crosslinked to FN, percent of that on pFN^wt in assay [4] turned out to be 60%.

In turn, “αIIbβ3 integrin on mouse platelets (from UniProt Q9QUM0 32-1033; O54890 26-787) (receptor)” showed an adhesion of wild-type platelets under shear flow (1000/s, 10 min), pFN^syn compared to pFN^wt (fold reduction) in assay [3] of 10.
